Data reported in patent publication US20220411516A1 (Amgen, published 2022).

Target: T1, EGFRvIII (Epidermal Growth Factor Receptor Variant III) (human, UniProt P00533 298-1210)
T1 construct: also called Human EFGRvIII; de2-7EGFR
Assay: IHC staining, titration of the primary antibody (5.5, 2.75, 1.375 µg/ml)

B1: EGFRvIII antibody 1 (antibody, mouse IgG1, kappa, V domains shown)
VH: QVQLVESGGGVVQPGRSLRLSCAASGFTFSSYGMHWVRQAPGKGLEWVAVIWYDGSNKYYVDSVKGRFTISRDNSKNTLYLQMNSLRAEDTAVYYCARDGWQQLAPFDYWGQGTLVTVSA
VL: not shown
notes: also called first antibody; primary antibody
  binding result: binds
